Patent US20240158503A1 (PIERRE FABRE MEDICAMENT, published 2024)

B1: SA2297 (full-length human anti-VSIG4 monoclonal antibody, IgG form) (antibody, V domains shown)
VH: QVQLVESGGGVVQPGGSLRLSCAASGFIFSDYYMSWVRQAPGKGLEWVSYISPSGYTISYADSVKGRFTISRDNSKNSLYLQMNSLRAEDTAVYYCARRFSSSWSGYFDYWGHGALVTVSS
VL: DIQMTQSPSTLSASVGDRVTITCRASQNINRWLAWYQQKPGKAPKLLIYKAFRLHSGVPSRFSGSGSGTEFTLTITSLQPDDFATYYCQQYLSYSSSIFGQGTKVEIK
notes: also called Mab SA2297
B2: SA2297 scFv-phage (original scFv version of SA2297) (scFv, V domains shown)
VH: B1 VH
VL: B1 VL
B3: SA2281 (full-length human anti-VSIG4 monoclonal antibody, IgG form) (antibody, V domains shown)
VH: QVQLVESGGGVVQPGRSLRVSCAASGFTFSTYAMHWVRQAPGKGLEWLAVVSHDGTYKYYGDSVKGRFSISRDNSKNTLYLQMNSLRSEDTAVYYCGRHAAGSSFDYWGQGTVVTVSS
VL: DIQMTQSPSSLSASVGDRVTITCQASRDISNYLNWYQQKPGKAPKLLIYKTSNLQRGVPSRFSGSGSGTEFTLTISRLQPDDSATYYCQQSYRTPYTFGQGTKLEIK
notes: also called Mab SA2281
B4: SA2281 scFv-phage (original scFv version of SA2281) (scFv, V domains shown)
VH: B3 VH
VL: B3 VL

Columns and labels:
[1] = molecular target: T1, hVSIG4(S)-hFc (VSIG4(S)-Fc) (human); assay: western blot, 100 ng hVSIG4 short-hFc
T1 construct: also called hVSIG4 short-hFc (S); VGIG4(S)-Fc

[2] = molecular target: T2, human His-tagged VSIG4 short isoform (K00400002-BR1-117) (human, UniProt Q9Y279 20-283); assay: HTRF competition: His-tagged VSIG4 short isoform with C3b-d2
T2 construct: also called hVSIG4-His (short form); not shown: His tag (detected with anti-6His)

[3] = molecular target: T3, human VSIG4 overexpressed on HEK293E cells (human, UniProt Q9Y279 20-399); assay: flow cytometry on HEK293E cells expressing human VSIG4, antibody titration
T3 construct: whole, on cells; also called hVSIG4/HEK293E; huVSIG4

[4] = molecular target: T2, human His-tagged VSIG4 short isoform …; assay: HTRF competition: His-tagged VSIG4 short isoform with iC3b
VSIG4-M3-Fc = molecular target: T4, VSIG4-M3-Fc (human); assay: scFv-phage ELISA on coated Fc fusion (100 ng/well), anti-M13-HRP, A490
T4 construct: 66; Leader left out; 67

VSIG4-M2-Fc = molecular target: T5, VSIG4-M2-Fc (human); assay: as above
T5 construct: 63; Leader left out; 64

[5] = molecular target: T6, hVSIG4-V-Fc (short VSIG4 form, epitope-mapping construct) (human); assay: as above
T6 construct: 58; All M1-M8 mutations were made in this short form

[6] = molecular target: T7, hVSIG4-Fc (long VSIG4 form, epitope-mapping construct) (human); assay: as above
T7 construct: 55

VSIG4-M4-Fc = molecular target: T8, VSIG4-M4-Fc (human); assay: as above
T8 construct: 69; Leader left out; 70

VSIG4-M6-Fc = molecular target: T9, VSIG4-M6-Fc (human); assay: as above
T9 construct: 75; Leader left out; 76

VSIG4-M5-Fc = molecular target: T10, VSIG4-M5-Fc (human); assay: as above
T10 construct: 72; Leader left out; 73

VSIG4-M1-Fc = molecular target: T11, VSIG4-M1-Fc (human); assay: as above
T11 construct: Short form carrying E24T, V25A, E27H, V29L, T30A; Structure [LS]-QGAVGA-[VSIG4]-LAASAAS-[FC], leader left out; 61

VSIG4-M7-Fc = molecular target: T12, VSIG4-M7-Fc (human); assay: scFv-phage ELISA on coated Fc fusion (100 ng/well)
T12 construct: 78; Leader left out; 79

VSIG4-M8-Fc [7] = molecular target: T13, VSIG4-M8-Fc (human); assay: scFv-phage ELISA on coated Fc fusion (100 ng/well)
T13 construct: 81; Leader left out; 82

VSIG4-M8-Fc [8] = molecular target: T13, VSIG4-M8-Fc; assay: scFv-phage ELISA on coated Fc fusion (100 ng/well), anti-M13-HRP, A490

Binder | binding result [1] | IC50 [2] [nM] | EC50 [3] [nM] | IC50 [4] [nM] | binding result (VSIG4-M3-Fc) | binding result (VSIG4-M2-Fc) | binding result [5] | binding result [6] | binding result (VSIG4-M4-Fc) | binding result (VSIG4-M6-Fc) | binding result (VSIG4-M5-Fc) | binding result (VSIG4-M1-Fc) | binding result (VSIG4-M7-Fc) | binding result (VSIG4-M8-Fc [7]) | binding result (VSIG4-M8-Fc [8])
B1 | binds | 16.4 | 1.18 | 17.9 |  |  |  |  |  |  |  |  |  |  | 
B2 |  |  |  |  | binds | binds | binds | binds | binds | binds | binds | binds | no binding | no binding | 
B3 | binds | 7.3 | 0.461 | 9.5 |  |  |  |  |  |  |  |  |  |  | 
B4 |  |  |  |  | binds | binds | binds | binds | binds | binds | binds | binds | no binding |  | binds
